Measurements published in the supplement of paper PMC7877785.
± gives the uncertainty stated by the source.

Assay: self-splicing fitness, log relative to wild type (ln ratio); higher = more splicing; Tetrahymena group I intron in knt gene, E. coli kanamycin selection, DiMSum; sequences stand for … in CUCUCU…GGAGGGAAAAGUUAUCAGGCAUGCACCUGGUAGCUAGUCUUUAAACCAAUAGAUUGCAUCGGUUUAAAAGGCAAGACCGUCAAAUUGCGGGAAAGGGGUCAACAGCCGUUCAGUACCAAGUCUCAGGGGAAACUUUGAGAUGGCCUUGCAAAGGGUAUGGUAAUAAGCUGACGGACAUGGUCCUAACCACGCAGCCAAGUCCUAAGUCAACAGAUCUUCUGUUGAUAUGGAUGCAGUUCACAGACUAAAUGUCGGUCGGGGAAGAUGUAUUCUUCUCAUAAGAUAUAGUCGGACCUCUCCUUAAUGGGAGCUAGCGGAUGAAGUGAUGCAACACUGGAGCCGCUGGGAACUAAUUUGUAUGCGAAAGUAUAUUGAUUAGUUUUGGAGUACUCGUGGUCG
Procedure, shortened: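 Pooled colonies went to amplicon sequencing on an Illumina HiSeq 2500 after six replicate transformations. The plates were LB agar with 100 μg/mL carbenicillin, 50 μM IPTG and 0.2% rhamnose, with or without 25 μg/mL kanamycin, incubated overnight at 37°C or 30°C. The E. coli BL21(DE3) library had all eight P1ex-region intron nucleotides randomised, the intron placed in the knt kanamycin-resistance gene on pET-22b(+). DiMSum fitness is the error-weighted combination of replicate fold changes, kanamycin against none, normalised to wild type.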

| Sequence | self-splicing fitness (ln) (30 °C) | self-splicing fitness (ln) (37 °C) |
| --- | --- | --- |
| GCAAAGCAAUAUUACGACAU | -0.736 ± 0.012 | -0.158 ± 0.032 |
| GCAAAGCAAUAUUACGACCC | -1.11 ± 0.073 | -0.0707 ± 0.1 |
| GCAAAGCAAUAUUACGACGU | 0.0721 ± 0.072 | 0.116 ± 0.096 |
| GCAAAGCAAUAUUACGACUG | -1.3 ± 0.13 | -0.673 ± 0.15 |
| GCAAAGCAAUAUUACGAGUC | -1.41 ± 0.14 | -2.6 ± 0.19 |
| GCAAAGCAAUAUUACGCAAC | -3.02 ± 0.15 | -1.23 ± 0.12 |
| GCAAAGCAAUAUUACGCCAA | -2.08 ± 0.48 | -2.95 ± 0.31 |
| GCAAAGCAAUAUUACGCGGG | -3.11 ± 0.21 | -2.41 ± 0.21 |
| GCAAAGCAAUAUUACGCUUC | -4.15 ± 0.33 | -2.39 ± 0.33 |
| GCAAAGCAAUAUUACGGCUA | -0.821 ± 0.07 | -0.279 ± 0.073 |
| GCAAAGCAAUAUUACGGGAC | -1.82 ± 0.11 | -1.66 ± 0.16 |
| GCAAAGCAAUAUUACGGGCG | -0.534 ± 0.079 | -0.696 ± 0.11 |
| GCAAAGCAAUAUUACGGUUU | -1.26 ± 0.063 | -0.4 ± 0.082 |
| GCAAAGCAAUAUUACGUAAU | -1.23 ± 0.061 | -0.867 ± 0.084 |
| GCAAAGCAAUAUUACGUCCA | -1.64 ± 0.12 | -0.284 ± 0.11 |
| GCAAAGCAAUAUUACGUGCC | -4.02 ± 0.25 | -1.63 ± 0.2 |
| GCAAAGCAAUAUUACGUGGA | -2.07 ± 0.14 | -2.36 ± 0.16 |
| GCAAAGCAAUAUUACGUGGC | -3.38 ± 0.31 | -2.57 ± 0.24 |
| GCAAAGCAAUAUUACGUGUG | -1.99 ± 0.046 | -0.419 ± 0.052 |
| GCAAAGCAAUAUUACGUUUA | -2.29 ± 0.12 | -1.75 ± 0.13 |
| GCACAGCAAUAUUACGAAAC | -0.701 ± 0.088 | -0.265 ± 0.12 |

| Sequence | self-splicing fitness (ln) (30 °C) | self-splicing fitness (ln) (37 °C) |
| --- | --- | --- |
| GCACAGCAAUAUUACGACGC | -0.317 ± 0.079 | -0.196 ± 0.12 |
| GCACAGCAAUAUUACGAGGC | -2.95 ± 0.12 | -3.27 ± 0.2 |
| GCACAGCAAUAUUACGAGUG | -4.09 ± 0.26 | -2.64 ± 0.17 |
| GCACAGCAAUAUUACGAUUA | -1.38 ± 0.087 | -0.549 ± 0.086 |
| GCACAGCAAUAUUACGCCAC | – | -1.97 ± 0.2 |
| GCACAGCAAUAUUACGCGGA | -1.51 ± 0.14 | -0.87 ± 0.12 |
| GCACAGCAAUAUUACGCUCG | -0.537 ± 0.066 | 0.118 ± 0.095 |
| GCACAGCAAUAUUACGCUUG | -2.89 ± 0.12 | -1.39 ± 0.11 |
| GCACAGCAAUAUUACGGCGU | -0.386 ± 0.061 | 0.414 ± 0.079 |
| GCACAGCAAUAUUACGGGAA | -1.47 ± 0.15 | -1.42 ± 0.13 |
| GCACAGCAAUAUUACGGGUG | -4.37 ± 0.23 | -2.62 ± 0.16 |
| GCACAGCAAUAUUACGGUAA | -1.06 ± 0.075 | -0.547 ± 0.079 |
| GCACAGCAAUAUUACGGUCG | -0.697 ± 0.043 | -0.246 ± 0.057 |
| GCACAGCAAUAUUACGUCCU | -0.289 ± 0.072 | 0.244 ± 0.094 |
| GCACAGCAAUAUUACGUGCA | -3.1 ± 0.12 | -2.04 ± 0.093 |
| GCACAGCAAUAUUACGUGUC | -2.98 ± 0.12 | -2.05 ± 0.17 |
| GCACAGCAAUAUUACGUUAC | -1.14 ± 0.074 | -0.837 ± 0.087 |
| GCACAGCAAUAUUACGUUAU | -1.14 ± 0.044 | -0.44 ± 0.054 |
| GCACAGCAAUAUUACGUUCA | -0.911 ± 0.054 | -0.855 ± 0.062 |
| GCACAGCAAUAUUACGUUCC | -1.85 ± 0.078 | -0.808 ± 0.11 |
| GCACAGCAAUAUUACGUUGG | -1.6 ± 0.058 | -0.74 ± 0.071 |
